In paper PMC7960994:

Key:
[1] = target: D474A-PfCpn60 (Plasmodium falciparum mitochondrial chaperonin 60, ATP hydrolysis-deficient mutant) (Plasmodium falciparum (isolate FCR-3/Gambia)); experiment: negative stain electron microscopy
[2] = target: D474A-PfCpn60 (Plasmodium falciparum mitochondrial chaperonin 60, ATP hydrolysis-deficient mutant) (Plasmodium falciparum (isolate FCR-3/Gambia)); experiment: crystal structure; D474A-PfCpn60 with bound ATP; crystals from phosphate citrate buffer pH 4.4, 13% isopropanol, lithium sulfate; 3.69 Å; one heptameric ring in the asymmetric unit

Substance: D474A-PfCpn60 (Plasmodium falciparum mitochondrial chaperonin 60, ATP hydrolysis-deficient mutant) (domain or fragment)
- stoichiometry N [1]: 7
- stoichiometry N [2]: 14
